This test deals with par6_caeel par-6 (UniProt Q9NAN2).
par6_caeel par-6, sequence (Q9NAN2 whole entry): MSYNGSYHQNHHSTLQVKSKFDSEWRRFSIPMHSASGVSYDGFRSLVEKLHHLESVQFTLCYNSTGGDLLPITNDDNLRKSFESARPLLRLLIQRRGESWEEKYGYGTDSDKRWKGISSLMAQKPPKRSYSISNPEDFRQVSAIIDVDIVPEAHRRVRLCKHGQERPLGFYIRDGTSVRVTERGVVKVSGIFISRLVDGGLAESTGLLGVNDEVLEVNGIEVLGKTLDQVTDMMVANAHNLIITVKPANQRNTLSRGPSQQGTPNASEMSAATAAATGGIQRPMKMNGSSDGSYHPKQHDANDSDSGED

Cell division control protein 42 homolog (Caenorhabditis elegans), Q05062 T17N, sequence (Q05062 whole entry T17N): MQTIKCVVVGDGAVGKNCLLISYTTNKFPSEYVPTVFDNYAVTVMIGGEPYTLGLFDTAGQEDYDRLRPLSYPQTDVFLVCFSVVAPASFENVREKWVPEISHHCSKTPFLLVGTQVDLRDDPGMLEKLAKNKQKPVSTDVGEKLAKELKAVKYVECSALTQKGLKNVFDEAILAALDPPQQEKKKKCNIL

As to “Cell division control protein 42 homolog (Caenorhabditis elegans), Q05062 T17N”, the “effect of a mutation on the interaction” value is listed as “disrupting interaction”.
